Series [1] concerns the target T1, AK072874 B3-domain fragment, MBP fusion (Oryza sativa, UniProt Q7XKC5 Q7XKC5:151-433).
T1 sequence: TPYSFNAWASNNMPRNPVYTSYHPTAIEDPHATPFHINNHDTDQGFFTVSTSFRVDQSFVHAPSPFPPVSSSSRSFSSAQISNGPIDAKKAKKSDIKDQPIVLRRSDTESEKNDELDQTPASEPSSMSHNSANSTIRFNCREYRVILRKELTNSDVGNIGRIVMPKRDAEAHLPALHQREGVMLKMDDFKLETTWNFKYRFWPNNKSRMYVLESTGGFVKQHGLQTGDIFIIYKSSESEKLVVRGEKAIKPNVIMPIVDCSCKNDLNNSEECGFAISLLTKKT
Description: EMSA; specific binding. Conditions: tags: MBP (pMAL-c2); label: labeled (EMSA probe). How it is done:
(§1) Next, the following operation was carried out for gel shift assay. First, partial ORFs containing a B3 DNA-binding domains of the respective candidate proteins were obtained by use of the following primers: a primer including the sequences shown in, respectively, SEQ ID NOS: 52 (forward) and 53 (reverse), for the 501st-726th amino acids of OsVP1; a primer including the sequences shown in, respectively, SEQ ID NOS: 54 (forward) and 55 (reverse), for the 141st-362nd amino acids of AK107456; a primer including the sequences shown in, respectively, SEQ ID NOS: 56 (forward) and 57 (reverse), for the 151st-433rd amino acids of AK072874; a primer including the sequences shown in, respectively, SEQ ID NOS: 58 (forward) and 59 (reverse), for the 1st-289th amino acids of AK109920; and a primer including the sequences shown in, respectively, SEQ ID NOS: 60 (forward) and 61 (reverse), for the 287th-672nd amino acids of AK101356. Then, each of the partial ORFs was inserted into pMAL-c2 (New England Biolabs) so as to be fused in frame to a maltose-binding protein (MBP) gene. By using a plasmid thus obtained, a fused protein of each of the candidate proteins and the MBP was produced in accordance with manufacturer's instructions. […]
A general note: In EMSA bound probe runs differently from free probe, usually more slowly.

The target in series [2] is T2, IDEF1 (AK107456) B3-domain fragment, MBP fusion (Oryza sativa, UniProt Q6Z1Z3 SEQ:141-362).
T2 chain: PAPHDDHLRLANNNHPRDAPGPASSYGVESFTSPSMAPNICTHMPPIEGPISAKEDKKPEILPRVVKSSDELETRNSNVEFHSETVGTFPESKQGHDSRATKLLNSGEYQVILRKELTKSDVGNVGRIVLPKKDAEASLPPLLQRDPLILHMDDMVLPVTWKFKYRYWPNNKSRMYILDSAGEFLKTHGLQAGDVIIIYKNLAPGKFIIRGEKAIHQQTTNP
The experiment in a line: EMSA; specific binding. The following applies: tags: MBP (pMAL-c2); label: labeled (EMSA probe). Here is the method: as §1

Series [3] has as its target T3, OsVP1 B3-domain fragment, MBP fusion (Oryza sativa, UniProt P37398 P37398:501-726).
T3 sequence: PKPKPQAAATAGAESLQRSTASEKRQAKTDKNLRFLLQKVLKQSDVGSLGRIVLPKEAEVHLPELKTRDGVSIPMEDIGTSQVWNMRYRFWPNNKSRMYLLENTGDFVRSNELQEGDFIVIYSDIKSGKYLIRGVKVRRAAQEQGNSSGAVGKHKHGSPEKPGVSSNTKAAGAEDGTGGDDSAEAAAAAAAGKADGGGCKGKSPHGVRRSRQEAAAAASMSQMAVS
Description: EMSA; no specific binding. Conditions: tags: MBP (pMAL-c2); label: labeled (EMSA probe). Here is the method: as §1

For series [4], the target named is T1, AK072874 B3-domain fragment, MBP fusion. The experiment in a line: competition; 30-fold excess mutated IDE1 competitors; CATGC specifically recognized. The following applies: tags: MBP (pMAL-c2). Here is the method:
as §1

Series [5] has as its target T2, IDEF1 (AK107456) B3-domain fragment, …. The series is described as above. Conditions: tags: MBP (pMAL-c2). How it is done:
as §1

Series [6] addresses T4, IDEF2 NAC domain, MBP fusion (Oryza sativa).
T4 chain: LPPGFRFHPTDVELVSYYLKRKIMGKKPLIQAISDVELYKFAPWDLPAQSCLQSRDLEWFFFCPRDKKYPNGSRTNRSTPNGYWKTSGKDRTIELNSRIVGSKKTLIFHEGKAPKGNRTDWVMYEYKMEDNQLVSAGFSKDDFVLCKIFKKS
Description: EMSA; 500 ng fusion protein; competition with 30- or 50-fold excess mutants shows CA[A/C]G(TTT) recognized. Conditions: tags: MBP (pMAL-c2); label: labeled. How it is done: Then, specific binding of IDEF2 to IDE2 was confirmed by the EMSA method. An IDEF2 NAC domain amplified by a primer including the base sequences shown in, respectively, SEQ ID NOS: 64 and 65, was cloned to a pMAL-c2 vector, and was used to produce an IDEF2-MBP fused protein. Then, a labeled […] including the base sequence (SEQ ID NO: 41) including IDE2 was incubated with 500 ng of the IDEF2-MBP fused protein.
Next, competition experiments were carried out by addition of 30-fold or 50-fold excess unlabeled competitors. FIG. 10 and (a) of FIG. 12 show mutations introduced into polynucleotide fragments, which were used as the competitors. The IDE2 probe was incubated with the 30-fold or 50-fold excess unlabeled competitors and 500 ng of the IDEF2-MBP fused protein. FIG. 10 and (b) of FIG. 12 show the result of the competition experiments. As shown in FIG. 10 and (b) of FIG. 12, IDEF2 predominantly recognized a CA[A/C]G(TTT) sequence (SEQ ID NO: 33 or 34) within IDE2.

B1: IDE2-IDE1x2 (tandemly duplicated IDE1 probe) (dsDNA)
DNA 1: AAGCTTGAATTCGATATCTTGAACGGCAAGTTTCACGCTGTCACTATCAAGCATGCTTCTTGCTTGAACGGCAAGTTTCACGCTGTCACTATCAAGCATGCTTCTTGCACGCGTCTCGAGTCGCGAATCG
DNA 2: CGATTCGCGACTCGAGACGCGTGCAAGAAGCATGCTTGATAGTGACAGCGTGAAACTTGCCGTTCAAGCAAGAAGCATGCTTGATAGTGACAGCGTGAAACTTGCCGTTCAAGATATCGAATTCAAGCTT
On to B1, for which the binding result in series [1] is reported as “binds”; in series [2], “binds”; in series [3], “no binding”.

B2: IDE1 (dsDNA)
DNA 1: ATCAAGCATGCTTCTTGC
DNA 2: GCAAGAAGCATGCTTGAT
As to B2, the binding result in series [4] and in series [5] was “binds” throughout.

B3: IDE2 EMSA probe (dsDNA)
DNA 1: GAGAGTGGGTTGAACGGCAAGTTTCACGCTGTCACTATCGTCCTCG
DNA 2: CGAGGACGATAGTGACAGCGTGAAACTTGCCGTTCAACCCACTCTC
In the case of B3, in series [6], the binding result was “binds”.
